Laboratory results as given in patent US20240343771A1 (Chugai, published 2024).
Changes are numbered by the printed parent chain. In names and notes the source's numbering stands.

B1: Anti-IL-12 antibody Ab1 variant Y91A VH/P44A, Y49A VL (antibody, name in Kabat numbering, V domains shown)
VH: QVQLVQSGAEVKKPGSSVKVSCKASGGTFSDYYLHWVRQAPGQGLEWMGWIDPENGDTEYAPKFQGRVTITADESTSTAYMELSSLRSEDTAVYACARNKELRYFDVWGQGTLVTVSS
VL: DIVMTQSPLSLPVTPGEPASISCRASQSISINLHWYQQKPGQAARLLIAFASQSISGVPSRFSGSGSGTDFTLTISSLQPEDFATYYCQQSNSFPLTFGQGTKVEIKR
notes: Ab1 with VH/VL interface substitutions; Kabat numbering
B2: Anti-IL-12 antibody Ab1 variant Y91M VH/A43Q, L46Q, Y49A VL (antibody, name in Kabat numbering, V domains shown)
VH: B1 VH with A95M
VL: B1 VL with A43Q, A44P, L46Q
notes: as for B1
B3: Anti-IL-12 antibody Ab1 variant Y91L VH/- (antibody, name in Kabat numbering, V domains shown)
VH: B1 VH with A95L
VL: B1 VL with A44P, A49Y
notes: as for B1
B4: Anti-IL-12 antibody Ab1 variant Y91M VH/A43Q, P44A, Y49A VL (antibody, name in Kabat numbering, V domains shown)
VH: B1 VH with A95M
VL: B1 VL with A43Q
notes: as for B1
B5: Anti-IL-12 antibody Ab1 variant Y91M VH/L46Q, Y49A, Y87M VL (antibody, name in Kabat numbering, V domains shown)
VH: B1 VH with A95M
VL: B1 VL with A44P, L46Q, Y87M
notes: as for B1
B6: Anti-IL-12 antibody Ab1 variant Y91M VH/A43Q, Y49A VL (antibody, name in Kabat numbering, V domains shown)
VH: B1 VH with A95M
VL: B1 VL with A43Q, A44P
notes: as for B1
B7: Anti-IL-12 antibody Ab1 variant Y91M VH/- (antibody, name in Kabat numbering, V domains shown)
VH: B1 VH with A95M
VL: B1 VL with A44P, A49Y
notes: as for B1
B8: Anti-IL-12 antibody Ab1 variant Y91A VH/Y49A, Y87L VL (antibody, name in Kabat numbering, V domains shown)
VH: B1 VH
VL: B1 VL with A44P, Y87L
notes: as for B1
B9: Anti-IL-12 antibody Ab1 variant Y91M VH/P44A, Y49A VL (antibody, name in Kabat numbering, V domains shown)
VH: B1 VH with A95M
VL: B1 VL
notes: as for B1
B10: Anti-IL-12 antibody Ab1 variant Y91M VH/Y49A, Y87L VL (antibody, name in Kabat numbering, V domains shown)
VH: B1 VH with A95M
VL: B1 VL with A44P, Y87L
notes: as for B1
B11: Anti-IL-12 antibody Ab1 variant Y91M VH/L46Q, Y49A VL (antibody, name in Kabat numbering, V domains shown)
VH: B1 VH with A95M
VL: B1 VL with A44P, L46Q
notes: as for B1
B12: Anti-IL-12 antibody Ab1 variant Y91M VH/Y49A, F98L VL (antibody, name in Kabat numbering, V domains shown)
VH: B1 VH with A95M
VL: B1 VL with A44P, F98L
notes: as for B1

What follows are binders tested against T1, human IL-12 (human, UniProt P29460 23-328; P29459 23-219) (assay: SPR (Biacore T200), 37 C, pH 7.4; captured antibody, IL-12 analyte).
T1 construct: also called Interleukin-12
T1 sequence 1: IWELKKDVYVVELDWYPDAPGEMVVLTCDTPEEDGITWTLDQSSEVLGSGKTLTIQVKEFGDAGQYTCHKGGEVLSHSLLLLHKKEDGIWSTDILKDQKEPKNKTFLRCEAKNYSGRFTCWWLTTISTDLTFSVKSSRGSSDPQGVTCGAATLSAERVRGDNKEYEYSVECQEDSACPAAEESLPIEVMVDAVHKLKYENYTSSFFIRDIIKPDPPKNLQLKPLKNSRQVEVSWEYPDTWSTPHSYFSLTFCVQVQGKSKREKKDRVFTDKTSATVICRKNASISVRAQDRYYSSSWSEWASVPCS
T1 sequence 2: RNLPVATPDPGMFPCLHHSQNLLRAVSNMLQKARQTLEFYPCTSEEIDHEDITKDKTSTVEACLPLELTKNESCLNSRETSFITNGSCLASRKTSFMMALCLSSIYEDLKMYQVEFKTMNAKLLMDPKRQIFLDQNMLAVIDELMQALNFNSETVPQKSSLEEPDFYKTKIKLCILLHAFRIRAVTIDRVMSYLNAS
Outline: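 Antibodies captured (~50 RU) on anti-human Fc surface, CM4 chip; 5 nM human IL-12 injected as analyte, then dissociation. Run at 37 °C in 20 mM ACES pH 7.4, 150 mM NaCl, 0.05% Tween 20; 3M MgCl₂ regeneration between cycles.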

Binder | Kd [nM]
B1 | 2.32
B2 | 4.41
B3 | 1.21
B4 | 1.69
B5 | 3.83
B6 | 1.87
B7 | 0.827
B8 | 2.82
B9 | 1.83
B10 | 3.1
B11 | 3.83
B12 | 1.07
